From patent US20230322953A1 (HARBOUR BIOMED SHANGHAI, published 2023)

How the values were obtained:
[1] = molecular target: T1, human 4-1BB (tumor necrosis factor receptor superfamily member 9) (human, UniProt Q07011 24-255); assay: cell-based or functional assay
[2] = molecular target: T1, human 4-1BB (tumor necrosis factor …); assay: flow cytometry (FACS) on CHO-K1/hu 4-1BB cells
[3] = molecular target: T2, human PD-L1 (programmed death ligand 1) (human, UniProt Q9NZQ7 19-290); assay: flow cytometry (FACS) on CHO-K1/hPDL1 cells, Experiment 1
T2 construct: whole, on cells; also called hPDL1; CD274

cynomolgus monkey 4-1BB = molecular target: T3, cynomolgus monkey 4-1BB (cynomolgus monkey); assay: flow cytometry (FACS) on CHO-K1/cyno 4-1BB cells, Experiment 1
T3 construct: whole, on cells; also called cyno 4-1BB

human BCMA [4] = molecular target: T4, human BCMA (human, UniProt Q02223 1-184); assay: FACS on NCI-H929 cells
T4 construct: whole, on cells; also called hBCMA; TNFRSF17
T4 sequence (looked up): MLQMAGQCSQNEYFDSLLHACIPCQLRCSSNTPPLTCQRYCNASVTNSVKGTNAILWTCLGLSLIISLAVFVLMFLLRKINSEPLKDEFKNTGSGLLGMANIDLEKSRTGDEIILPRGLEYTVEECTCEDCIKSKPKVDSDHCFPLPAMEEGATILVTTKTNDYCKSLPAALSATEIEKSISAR

cynomolgus monkey BCMA = molecular target: T5, cynomolgus monkey BCMA (cynomolgus monkey, UniProt A0A2K5UD97 1-183); assay: FACS on HEK293T/cyno BCMA cells
T5 construct: whole, on cells; also called cyno BCMA

human BCMA [5] = molecular target: T4, human BCMA; assay: FACS on HEK293T/hBCMA cells, Experiment 1
[6] = molecular target: T2, human PD-L1 (programmed death ligand 1); assay: flow cytometry (FACS) on CHO-K1/hPDL1 cells, Experiment 3

T5 sequence (A0A2K5UD97 entry or part of it): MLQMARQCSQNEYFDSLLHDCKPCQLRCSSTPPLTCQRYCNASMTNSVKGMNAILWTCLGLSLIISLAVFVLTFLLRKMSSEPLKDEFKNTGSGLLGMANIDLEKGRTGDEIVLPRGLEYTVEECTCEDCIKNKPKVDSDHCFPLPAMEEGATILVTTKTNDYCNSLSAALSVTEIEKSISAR
T2 sequence (Q9NZQ7 19-290): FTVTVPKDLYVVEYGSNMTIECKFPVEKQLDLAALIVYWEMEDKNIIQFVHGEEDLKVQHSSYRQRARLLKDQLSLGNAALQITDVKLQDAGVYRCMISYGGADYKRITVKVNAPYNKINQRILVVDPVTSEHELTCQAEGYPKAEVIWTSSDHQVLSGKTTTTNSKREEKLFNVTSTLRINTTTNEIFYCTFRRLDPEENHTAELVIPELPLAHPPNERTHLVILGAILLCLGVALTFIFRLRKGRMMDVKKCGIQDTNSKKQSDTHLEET
T1 sequence (Q07011 24-255): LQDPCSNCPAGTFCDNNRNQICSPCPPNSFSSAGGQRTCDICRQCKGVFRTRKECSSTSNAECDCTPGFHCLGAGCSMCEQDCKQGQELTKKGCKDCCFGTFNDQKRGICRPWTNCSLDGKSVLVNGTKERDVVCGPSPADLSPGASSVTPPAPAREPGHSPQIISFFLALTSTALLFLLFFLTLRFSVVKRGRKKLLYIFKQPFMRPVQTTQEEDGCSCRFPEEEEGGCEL

B1: PR003549, PD-L1×4-1BB bispecific antibody molecule of IgG-VH tetravalent symmetric structure (bispecific antibody)
light: DIQMTQSPSTLSASVGDRVTVTCRASQSIYIWLAWYQQKPGKAPNLLIYKASSLETGVPSRFSGSGSGTEFTLTISSLQPDDFATYYCQQYYGSSRTFGQGTKVEIKRTVAAPSVFIFPPSDEQLKSGTASVVCLLNNFYPREAKVQWKVDNALQSGNSQESVTEQDSKDSTYSLSSTLTLSKADYEKHKVYACEVTHQGLSSPVTKSFNRGEC
heavy: EVQLVESGGGLVQPGGSLRLSCAASGFTFSSYWMSWVRQAPGKGLEWVANIKQEGSEKYYVDSVKGRFTISRDNAKNSLYLQMNSLRAEDTAVYYCARDRAVAGAFDIWGQGTMVTVSSASTKGPSVFPLAPSSKSTSGGTAALGCLVKDYFPEPVTVSWNSGALTSGVHTFPAVLQSSGLYSLSSVVTVPSSSLGTQTYICNVNHKPSNTKVDKKVEPKSCDKTHTCPPCPAPEAAGGPSVFLFPPKPKDTLMISRTPEVTCVVVDVSHEDPEVKFNWYVDGVEVHNAKTKPREEQYNSTYRVVSVLTVLHQDWLNGKEYKCKVSNKALGAPIEKTISKAKGQPREPQVYTLPPSREEMTKNQVSLTCLVKGFYPSDIAVEWESNGQPENNYKTTPPVLDSDGSFFLYSKLTVDKSRWQQGNVFSCSVMHEALHNHYTQKSLSLSPGEPKSSDKTHTPPPPPRTEVQLLESGGGLVQLGGSLRLSCAASGFTFSRYAMTWVRQAPEKGLEWVSSISGSGDDTYYGDSVKGRFTISRDNSQNTVYLQMNSLRAEDTAVYFCAKEKAGTTGDYYYNVDVWGQGTTVTVSS
notes: Structure 5; IgG PR000265, VH of PR001758 at C-terminus of heavy chain; linker H1_15-RT; human IgG1 (L234A, L235A, P329G)
IFN-γ EC50 (nM), T cells with MDA-MB-231 target cells [1]: 0.0695 nM
IL-2 EC50 (nM), T cells with MDA-MB-231 target cells [1]: 0.12 nM
EC50 [2]: 1.9 nM
Maximum MFI [2]: 1550 MFI
EC50 [3]: 1.56 nM
Maximum MFI [3]: 2220 MFI
EC50 (cynomolgus monkey 4-1BB): 1.86 nM
Maximum MFI (cynomolgus monkey 4-1BB): 4980 MFI

B2: Anti-4-1BB monoclonal antibody urelumab analog, hIgG4 (S228P) (antibody, V domains shown)
VH: QVQLQQWGAGLLKPSETLSLTCAVYGGSFSGYYWSWIRQSPEKGLEWIGEINHGGYVTYNPSLESRVTISVDTSKNQFSLKLSSVTAADTAVYYCARDYGPGNYDWYFDLWGRGTLVTVSS
VL: EIVLTQSPATLSLSPGERATLSCRASQSVSSYLAWYQQKPGQAPRLLIYDASNRATGIPARFSGSGSGTDFTLTISSLEPEDFAVYYCQQRSNWPPALTFGGGTKVEIKR
IFN-γ EC50 (nM), T cells with MDA-MB-231 target cells [1]: 0.536 nM
IL-2 EC50 (nM), T cells with MDA-MB-231 target cells [1]: 2.94 nM

B3: PR002929 (bispecific antibody, human IgG1, lambda, L234A L235A)
light: QAVVTQEPSLTVSPGGTVTLTCRSSTGAVTTSNYANWVQQKPGQAPRGLIGGTNKRAPWTPARFSGSLLGDKAALTLLGAQPEDEAEYFCALWYSNLWVFGGGTKLTVLGQPKAAPSVTLFPPSSEELQANKATLVCLISDFYPGAVTVAWKADSSPVKAGVETTTPSKQSNNKYAASSYLSLTPEQWKSHRSYSCQVTHEGSTVEKTVAPTECS
heavy: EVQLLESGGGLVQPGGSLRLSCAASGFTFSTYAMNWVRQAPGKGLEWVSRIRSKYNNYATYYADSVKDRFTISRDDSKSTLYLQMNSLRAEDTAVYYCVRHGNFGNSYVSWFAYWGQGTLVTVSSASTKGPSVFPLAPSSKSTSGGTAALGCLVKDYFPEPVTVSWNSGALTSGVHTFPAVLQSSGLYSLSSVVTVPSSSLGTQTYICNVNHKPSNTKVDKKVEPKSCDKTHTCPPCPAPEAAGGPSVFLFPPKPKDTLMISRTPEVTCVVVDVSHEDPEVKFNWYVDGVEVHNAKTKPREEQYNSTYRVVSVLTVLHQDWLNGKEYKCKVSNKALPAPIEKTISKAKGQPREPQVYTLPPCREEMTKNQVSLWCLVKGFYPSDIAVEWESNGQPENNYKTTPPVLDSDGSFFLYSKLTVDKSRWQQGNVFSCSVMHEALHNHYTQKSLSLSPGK
chain: EVQLVETGGGLIQPGGSLRLSCAASGFTVSDNYMTWVRQAPGKGLEWVSVIFSGGNTYYADSVKGRFTISRDNAKNTLYLQMNSLRAEDTALYYCARRNYDDTRGTDVFDIWGQGTMVTVSSASEPKSSDKTHTCPPCPAPEAAGGPSVFLFPPKPKDTLMISRTPEVTCVVVDVSHEDPEVKFNWYVDGVEVHNAKTKPREEQYNSTYRVVSVLTVLHQDWLNGKEYKCKVSNKALPAPIEKTISKAKGQPREPQVCTLPPSREEMTKNQVSLSCAVKGFYPSDIAVEWESNGQPENNYKTTPPVLDSDGSFFLVSKLTVDKSRWQQGNVFSCSVMHEALHNHYTQKSLSLSPGK
EC50 (human BCMA [4]): 50.2 nM
Maximum MFI (cynomolgus monkey BCMA): 13800
EC50 (human BCMA [5]): 9.02 nM
Maximum MFI (human BCMA [5]): 17600

B4: PR001990 (bispecific antibody, human IgG1, lambda, L234A L235A)
light: QAVVTQEPSLTVSPGGTVTLTCRSSTGAVTTSNYANWVQQKPGQAPRGLIGGTNKRAPWTPARFSGSLLGDKAALTLLGAQPEDEAEYFCALWYSNLWVFGGGTKLTVLGQPKAAPSVTLFPPSSEELQANKATLVCLISDFYPGAVTVAWKADSSPVKAGVETTTPSKQSNNKYAASSYLSLTPEQWKSHRSYSCQVTHEGSTVEKTVAPTECS
heavy: EVQLLESGGGLVQPGGSLRLSCAASGFTFNTYAMNWVRQAPGKGLEWVSRIRSKYNNYATYYADSVKDRFTISRDDSKSTLYLQMNSLRAEDTAVYYCVRHGNFGNSYVSWFAYWGQGTLVTVSSASTKGPSVFPLAPSSKSTSGGTAALGCLVKDYFPEPVTVSWNSGALTSGVHTFPAVLQSSGLYSLSSVVTVPSSSLGTQTYICNVNHKPSNTKVDKKVEPKSCDKTHTCPPCPAPEAAGGPSVFLFPPKPKDTLMISRTPEVTCVVVDVSHEDPEVKFNWYVDGVEVHNAKTKPREEQYNSTYRVVSVLTVLHQDWLNGKEYKCKVSNKALGAPIEKTISKAKGQPREPQVYTLPPCREEMTKNQVSLWCLVKGFYPSDIAVEWESNGQPENNYKTTPPVLDSDGSFFLYSKLTVDKSRWQQGNVFSCSVMHEALHNHYTQKSLSLSPGK
chain: EVQLVETGGGLIQPGGSLRLSCAASGFTVSDNYMTWVRQAPGKGLEWVSVIFSGGNTYYADSVKGRFTISRDNAKNTLYLQMNSLRAEDTALYYCARRNYDDTRGTDVFDIWGQGTMVTVSSASEPKSSDKTHTCPPCPAPEAAGGPSVFLFPPKPKDTLMISRTPEVTCVVVDVSHEDPEVKFNWYVDGVEVHNAKTKPREEQYNSTYRVVSVLTVLHQDWLNGKEYKCKVSNKALGAPIEKTISKAKGQPREPQVCTLPPSREEMTKNQVSLSCAVKGFYPSDIAVEWESNGQPENNYKTTPPVLDSDGSFFLVSKLTVDKSRWQQGNVFSCSVMHEALHNHYTQKSLSLSPGK
Maximum MFI (human BCMA [4]): 1840
Maximum MFI (cynomolgus monkey BCMA): 9170
Maximum MFI (human BCMA [5]): 13400

B5: PR002935 (bispecific antibody, human IgG1, lambda, L234A L235A)
light: QAVVTQEPSLTVSPGGTVTLTCRSSTGAVTTSNYANWVQQKPGQAPRGLIGGTNKRAPWTPARFSGSLLGDKAALTLLGAQPEDEAEYFCALWYSNLWVFGGGTKLTVLGQPKAAPSVTLFPPSSEELQANKATLVCLISDFYPGAVTVAWKADSSPVKAGVETTTPSKQSNNKYAASSYLSLTPEQWKSHRSYSCQVTHEGSTVEKTVAPTECS
heavy: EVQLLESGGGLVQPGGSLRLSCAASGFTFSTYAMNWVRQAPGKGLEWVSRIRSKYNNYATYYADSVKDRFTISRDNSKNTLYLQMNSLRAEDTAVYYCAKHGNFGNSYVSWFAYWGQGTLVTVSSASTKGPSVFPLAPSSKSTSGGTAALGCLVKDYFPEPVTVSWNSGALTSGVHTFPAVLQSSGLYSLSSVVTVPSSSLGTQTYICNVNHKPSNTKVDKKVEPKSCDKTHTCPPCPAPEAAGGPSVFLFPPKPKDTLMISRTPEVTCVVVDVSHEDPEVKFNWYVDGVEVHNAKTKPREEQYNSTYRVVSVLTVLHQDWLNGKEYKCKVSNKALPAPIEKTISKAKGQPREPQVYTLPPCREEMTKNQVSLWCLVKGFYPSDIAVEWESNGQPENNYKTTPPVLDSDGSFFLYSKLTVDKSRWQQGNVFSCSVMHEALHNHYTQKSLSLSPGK
chain: EVQLVETGGGLIQPGGSLRLSCAASGFTVSDNYMTWVRQAPGKGLEWVSVIFSGGNTYYADSVKGRFTISRDNAKNTLYLQMNSLRAEDTALYYCARRNYDDTRGTDVFDIWGQGTMVTVSSASEPKSSDKTHTCPPCPAPEAAGGPSVFLFPPKPKDTLMISRTPEVTCVVVDVSHEDPEVKFNWYVDGVEVHNAKTKPREEQYNSTYRVVSVLTVLHQDWLNGKEYKCKVSNKALPAPIEKTISKAKGQPREPQVCTLPPSREEMTKNQVSLSCAVKGFYPSDIAVEWESNGQPENNYKTTPPVLDSDGSFFLVSKLTVDKSRWQQGNVFSCSVMHEALHNHYTQKSLSLSPGK
Maximum MFI (human BCMA [4]): 3840
Maximum MFI (cynomolgus monkey BCMA): 22000
EC50 (human BCMA [5]): 14.8 nM
Maximum MFI (human BCMA [5]): 23900

B6: PR007163, PD-L1×4-1BB bispecific antibody molecule of Fab-HCAb symmetric structure (bispecific antibody, human IgG1)
light: DIQMTQSPSTLSASVGDRVTVTCRASQSIYIWLAWYQQKPGKAPNLLIYKASSLETGVPSRFSGSGSGTEFTLTISSLQPDDFATYYCQQYYGSSRTFGQGTKVEIKRTVAAPSVFIFPPSDEQLKSGTASVVCLLNNFYPREAKVQWKVDNALQSGNSQESVTEQDSKDSTYSLSSTLTLSKADYEKHKVYACEVTHQGLSSPVTKSFNRGEC
chain: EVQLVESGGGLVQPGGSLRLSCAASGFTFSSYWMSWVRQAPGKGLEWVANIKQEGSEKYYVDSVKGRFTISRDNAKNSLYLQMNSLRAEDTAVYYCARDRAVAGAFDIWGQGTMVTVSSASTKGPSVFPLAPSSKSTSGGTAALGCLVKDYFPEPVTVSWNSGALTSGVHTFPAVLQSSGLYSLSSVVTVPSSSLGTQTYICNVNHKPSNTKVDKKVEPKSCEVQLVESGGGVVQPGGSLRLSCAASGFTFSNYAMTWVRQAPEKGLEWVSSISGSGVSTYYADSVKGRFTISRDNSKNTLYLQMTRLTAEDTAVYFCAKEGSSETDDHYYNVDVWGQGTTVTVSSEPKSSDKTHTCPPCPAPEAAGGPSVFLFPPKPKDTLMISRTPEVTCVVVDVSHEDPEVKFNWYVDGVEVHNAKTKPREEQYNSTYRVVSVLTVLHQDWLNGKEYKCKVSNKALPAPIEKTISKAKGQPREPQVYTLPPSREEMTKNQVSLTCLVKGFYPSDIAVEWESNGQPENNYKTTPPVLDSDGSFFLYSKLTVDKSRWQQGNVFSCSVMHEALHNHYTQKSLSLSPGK
notes: Structure 2 Fab(CH1)-VH-Fc; Fab of PR000265, VH of PR001760; no first linker, human IgG1 hinge (C220S); human IgG1 (L234A, L235A)
EC50 [6]: 2.26 nM
Maximum MFI [6]: 51300 MFI

B7: PR007164, PD-L1×4-1BB bispecific antibody molecule of Fab-HCAb symmetric structure (bispecific antibody, human IgG1)
chain 1: EVQLVESGGGLVQPGGSLRLSCAASGFTFSSYWMSWVRQAPGKGLEWVANIKQEGSEKYYVDSVKGRFTISRDNAKNSLYLQMNSLRAEDTAVYYCARDRAVAGAFDIWGQGTMVTVSSASTKGPSVFPLAPSSKSTSGGTAALGCLVKDYFPEPVTVSWNSGALTSGVHTFPAVLQSSGLYSLSSVVTVPSSSLGTQTYICNVNHKPSNTKVDKKVEPKSC
chain 2: not shown
notes: Structure 1 Fab(CL)-VH-Fc; Fab of PR000265, VH of PR001760; no first linker, human IgG1 hinge (C220S); human IgG1 (L234A, L235A)
EC50 [6]: 1.93 nM
Maximum MFI [6]: 51400 MFI

B8: PR003550, PD-L1×4-1BB bispecific antibody molecule of IgG-VH tetravalent symmetric structure (bispecific antibody)
light: DIQMTQSPSTLSASVGDRVTVTCRASQSIYIWLAWYQQKPGKAPNLLIYKASSLETGVPSRFSGSGSGTEFTLTISSLQPDDFATYYCQQYYGSSRTFGQGTKVEIKRTVAAPSVFIFPPSDEQLKSGTASVVCLLNNFYPREAKVQWKVDNALQSGNSQESVTEQDSKDSTYSLSSTLTLSKADYEKHKVYACEVTHQGLSSPVTKSFNRGEC
heavy: EVQLVESGGGLVQPGGSLRLSCAASGFTFSSYWMSWVRQAPGKGLEWVANIKQEGSEKYYVDSVKGRFTISRDNAKNSLYLQMNSLRAEDTAVYYCARDRAVAGAFDIWGQGTMVTVSSASTKGPSVFPLAPSSKSTSGGTAALGCLVKDYFPEPVTVSWNSGALTSGVHTFPAVLQSSGLYSLSSVVTVPSSSLGTQTYICNVNHKPSNTKVDKKVEPKSCDKTHTCPPCPAPEAAGGPSVFLFPPKPKDTLMISRTPEVTCVVVDVSHEDPEVKFNWYVDGVEVHNAKTKPREEQYNSTYRVVSVLTVLHQDWLNGKEYKCKVSNKALGAPIEKTISKAKGQPREPQVYTLPPSREEMTKNQVSLTCLVKGFYPSDIAVEWESNGQPENNYKTTPPVLDSDGSFFLYSKLTVDKSRWQQGNVFSCSVMHEALHNHYTQKSLSLSPGEPKSSDKTHTPPPPPRTEVQLVESGGGVVQPGGSLRLSCAASGFTFSNYAMTWVRQAPEKGLEWVSSISGSGVSTYYADSVKGRFTISRDNSKNTLYLQMTRLTAEDTAVYFCAKEGSSETDDHYYNVDVWGQGTTVTVSS
notes: Structure 5; IgG PR000265, VH of PR001760 at C-terminus of heavy chain; linker H1_15-RT; human IgG1 (L234A, L235A, P329G)
EC50 [3]: 1.11 nM
Maximum MFI [3]: 2250 MFI
EC50 (cynomolgus monkey 4-1BB): 1.32 nM
Maximum MFI (cynomolgus monkey 4-1BB): 5360 MFI
